The values that follow come from article PMC7098653.

Assay [1] deals with LysIME-EF1 CBD (residues 168-237) with an N-terminal 6xHis-tag (E. faecalis phage). Description: SEC; single purified CBD proteins; Superdex 200, 20 mM Tris-HCl pH 8.0, 150 mM NaCl, 0.5 ml/min, 16°C. (SEC sorts molecules by how far they enter the pores of the column.)
For assay [2], the target named is full-length LysIME-EF1 (wild type), N-terminally 6xHis-tagged (E. faecalis phage). Nature of the assay: crystal structure; Se-Met WT LysIME-EF1, space group P12(1)1, 1.75 Å, Se-SAD (PDB 6IST).
In assay [3] the target is truncated LysIME-EF1 CBD fragment (8 kDa), product of the internal translation start at M168 (E. faecalis phage). Nature of the assay: crystal structure; LysIME-EF1 CBD, space group I422, 1.75 Å, one molecule in the asymmetric unit, tetramer by crystallographic symmetry (PDB 6L00).

One may read the stoichiometry N as a count of units in the complex or per binding partner. “LysIME-EF1 CBD (residues 168-237) with an N-terminal 6xHis-tag (domain or fragment)”: in assay [1], the stoichiometry N turned out to be 4.

On to “truncated LysIME-EF1 CBD fragment (8 kDa), product of the internal translation start at M168 (domain or fragment)”, for which the stoichiometry N in assay [2] stood at 3; in assay [3], 4.
